Experiment: soluble on expression in E. coli; label from the status in PepcDB or PDB records

| Sequence | soluble on expression in E. coli |
| --- | --- |
| MLFFETDATLALWGEAVLAATWAEFPQLARNQLALTWIVYDDPVPVNTGGAIAPQSFWSLPIRGFHYRGDEAIYPASVVKLFYLVAALEWLQQGMIQPSAELDRALRDMIVDSSNDATGYIVDLLSGTTSGPELGDGPFKTWQFQRNIVNRYYQSLMWPELQPINVNQKTWGDGPYGRERAFYGPEFENRNKLTTNATARLLHAIAGGVAVSPSASQRMLNLLNRPFDPRSLAEDPENQVTGFLGQDLPQGSQLWSKAGWMSRVRHDAAYLEIPGLPPHLLVAFTEGKEHANNEAILPFIAQQVRQQLQPALEHHHHHH | soluble |
| MGSDKIHHHHHHLPRRYEDIYPSLPLLNSDGLEHMSAASLMSVRYFQAEPDRMPEDVFAEHHILLNLKAEPHRVQNTRDGEMRDFTFSKNDIIVTPAGMRSGWRWFAQSDVIVVTLLPDRVQRFAETELGLLLDPQQLGDLPLFSDADLCAAGVMLRDALEADDMSSAVMFEALSRVFLVKLLQRYGKRRPEDVALSSRFTSAHYNRVLAFIRANLERTITLDDLASEAGMSPSHFSRLFKDTVGTPPMQYVMAYRIEQSLAMMTDQGRALGDIALACGFADQAHFSRSFKQLMGATPRQHRSSLS | not soluble |
| MADAAKNALSSIFDKTKDVLSTAADATKGYASQAQQAIGKIIPGANHESDPNAAVAAAQAASGQPVDTTGGVPPAQ | not soluble |
| MMKPNIDFKRLKAYVQANGSYSLVVKGDSIEVHFSPNFPEAIPHLPDNLPVEHIMYGKVENGIVYFYRFETISSFGTTYNDLTDDDPIMEWLKYI | not soluble |
| MGSDKIHHHHHHCDLERYPLTDLSEETFWNSESNAELALTSLYRGSLTDGVEYNPSDWWSYHGMIMMEHLSDNAFDRRGENNPFFKISSGNLTADNAFIKRYWETSYKRIGYCNRFLVGIQNSSESEKKTRMIAEARFLRATQYFYLASYFKNVPLVENVLTGEEANNVTKTSQADILKWCVTEFTAAAADLPRFSAIPAGEAGRACKQAALAFLGRTCMLQKDWKSGAKAFHDIMELGDNAINANYQELFYPSTGTSNKENIFYIQYLENYLGTGLPQHALSAKDGGWSLVNPAADLYESYEFKDGTPFSYDDPRYDPSNLGKDRDPRLDYTIYYNGAIFMGTEYKMSPDYSAAKKEKLDYTSEASRTGFMMRKYFEESTPINDVQSANGLTPVIRYAEVLLGYLECLVEDNQTITQGILDETINAVRGRASVNMPPVTEVTPAKLREIVRHERRIELAMEGIRYWDIMRWGIAHEVLSQKIWGAPYPGSTQYATTTKEVDPTGNYRWYVGKRAFRNPTDYTWPIPQSEQNINPNLRD | not soluble |
| MAHHHHHHMKVENSKMEVKREQSYSNEDEEINEEDLNWWEQENLRIAMKGERRWETLAHNGVLFPPEYEPHGIPIFYDGREFKMTPEEEEVATMFAVMKEHDYYRMEVFRRNFFESWREILGKRQHPIRRLELCDFEPIYQWYLVQREKKLSRTKEEKKAIKEKQDAEAEPYRYCVWDGRREQVANFRVEPPGLFRGRGKHPLMGKLKVRVQPEDITINIGETAEVPVPPAGHKWAAVQHDHTVTWLAMWRDNVAGNMKYVMLAPSSSVKGQSDMVKFEKARKLKDKVDDIRASYMEAFKSNDLHVAQRAVAMYFIDRLALRVGNEKGEDEADTVGCCSLRVEHIQLMPDNIVRFDFLGKDSIRYQNDVAVLPEVYALLQRFTCRKSPGMDIFDQLNPTQLNDHLKSFMDGLSAKVFRTYNASITLDRWFKEKPVDPKWSTADKLAYFNKANTEVAILCNHQKSVSKNFKLQMMQLTTKSEYTRKTLELLEKAEVTAKKKSVEEAAKEFLEEQDRMQREWLESYGTEEQKKEFEEIVAKRAAPRVRSEKKSSSGTKKAKSASGKTRAATKKKSAKKSGKASSKKAARKSSKKAPKRSKEEDEDDVPLMSMAAKTKKTAGVKRQRAVKVASDDDDVPLAALRV | not soluble |
| MHSIYKFSTCNVHRESPLRVRVEDLTVAYNGEPVLSGVNLEFRGPGLVQIIGPNGAGKTTFLKAILGLIKPARGRVFLDGFEATGRPEMVGRYAGYVPQNPSAPKLSPMTVREFVETSLRLRGVTRARERAVEVLHTLGIRGEVLESRLWELSMGMLQRVFIARAIAPDPKMLVMDEPLASVDPAGRMEIARIIAGLARERLVLMTSHDPSLLLGHTDIIVVINRDLIASGPPEEVYREDVLRRVYGESVARGLVLAGEGGAHG | soluble |
| MERTGFLEYVLNYVKKGVELGGFPEDFYKILSRPRRVLIVNIPVRLDGGGFEVFEGYRVQHCDVLGPYKGGVRFHPEVTLADDVALAILMTLKNSLAGLPYGGAKGAVRVDPKKLSQRELEELSRGYARAIAPLIGDVVDIPAPDVGTNAQIMAWMVDEYSKIKGYNVPGVFTSKPPELWGNPVREYATGFGVAVATREMAKKLWGGIEGKTVAIQGMGNVGRWTAYWLEKMGAKVIAVSDINGVAYRKEGLNVELIQKNKGLTGPALVELFTTKDNAEFVKNPDAIFKLDVDIFVPAAIENVIRGDNAGLVKARLVVEGANGPTTPEAERILYERGVVVVPDILANAGGVIMSYLEWVENLQWYIWDEEETRKRLENIMVNNVERVYKRWQREKGWTMRDAAIVTALERIYNAMKIRGWI | soluble |
| MGSSHHHHHHSSGLVPRGSHMSKFSYLQNGKASTNGVPHANGHHQQHQNGHSNGVARNGGTATDTLPVAYQQKAATSGPFHMPRTEHVGYTYDTLQEIATYLLERTELRPKVGIICGSGLGTLAEQLTDVDSFDYETIPHFPVSTVAGHVGRLVFGYLAGVPVMCMQGRFHHYEGYPLAKCAMPVRVMHLIGCTHLIATNAAGGANPKYRVGDIMLIKDHINLMGFAGNNPLQGPNDERFGPRFFGMANTYDPKLNQQAKVIARQIGIENELREGVYTCLGGPNFETVAEVKMLSMLGVDAIGMSTVHEIITARHCGMTCFAFSLITNMCTMSYEEEEEHCHDSIVGVGKNREKTLGEFVSRIVKHIHYEAKK | soluble |
| MEVFVFTPKGDLYKMPKGATVLDFAFAIHSKLGSKCIGAKVNGKNAQLKQTLNSGLEHHHHHH | not soluble |
| MTEKQFKLTVQDNTNIEVKVNFTDVDSKGIIHIFHGMAEHMERYDKLAHALSKHGFDVIRHNHRGHGINIDESTRGHYDDMKRVIGDAFEVAQTVRGNVDKPYIIIGHSMGSVIARLFVETYPQYVDGLILSGTGMYSLWKGLPTVKVLQLITKIYGAEKRVEWVNQLVSNSFNKKIRPLRTQSDWISSNPIEVDNFIKDPYSGFNVSNQLLYQTAYYMLHTSQLKNMKMLNHAMPILLVSGYDDPLGDYGKGILKLANIYRKAGIKNVKVNLYHHKRHEVLFEKDHDKIWEDLFKWLNQFYKK | not soluble |
| MNTEVIHYIIRFLIGDESGNDQLLSRIGYTSKQSEMSRYSIVIRASNFFDSDIYGTDKAFPLLPLKEWEGVPLLFGEPTEELLEESDTLVLNADIVASTYFLISRYEEMYRRKLRDIHGRFPGRESLPFKAGFLQRPVVDEYGAILRTKIRQMGWPVKDPVPHFSMVNLTHDVDEPFEYRGWRSFARALIKERKSPFKAFRLAYANPASDRFFTFPRFVDWDKILRSKMPDCCRIIFFFKAPGKAPQDAPNYSLRKPLYQSLRSLVKNNGIVIGLHSNYSAGLNPELIGKQRKRLMSDTDMAVDCNRHHYLAAREPEDMQALISAGIRHDYTMGYADVAGFRLGTSRPVRFIMPSTRRLTELILHPLTLMDCTLHRQEYMGLDEATAIELCKELLMHTFIHGGEATLLWHNEYLSRDIHPWHARLYREVLRLIETMEEKQEEESFDYETAIDQ | not soluble |
| MGSDKIHHHHHHMIALKELKQYADLHVKTHSFQVINPRQVLQSIERAASEEPTAGGWDWQWVDAANKCLQANAIEDAIQCYNFARFPFPKTSLQQEAADRLTKVFEQAYCREDVQKHRVYYDNQKVTVYAANLHPDLPCLLVLGGIVSIKEQWSVFLQVGKRLGFSVLITECPGVGENQVRYHADSYRMIGQILDTFAGQAKVGDTYIVGMSFGGHLAMKQALHDERIKGITTVGAPLHYFFQDYSQLNVPFITQATLAHVMEEELDHVGRALSRFAFMPKELNKLKIPITYIFSSKDEIIPKSEKSFLLDNIANLTFYEFDDVHGSPNHLPLIQKIIPLSILKHSNSKRYFVRIMLAFLLTYNKWKGRDGKR | not soluble |
| MGHHHHHHSHMAVGTSALSKEPWWTLPENFHSPMVFHMEEDQEELIFGLDDTYLRCIELHSHTLIQLERCFTATGQTRVTVVGPPMAKQWLLLMFHCVGSQDSKCHARGLKMLERVRSQPLTNDDLVTSVSLPPYTGD | not soluble |
| MLRFFIQPQLNTIVDSVIGYEMLIKEYRDGTWRMPASFSAIPAHDMAELLIATAKELSLKVGSVSFNVDRNQILDDQLIHALIAAQTVLRPVKLIIELIENDVKPSVSDEQLIEVVTQLNDFGIQFCLDDVGSGINTWPAVKPLLPYTRELKYALQNYKEHLNESAAENHVTFWQNLATKHQMRFILEGIEDDNDDAWADSMNIDLRQGYYYGRP | not soluble |
| MTKLALFVRLEAKPGQEAALADFLASALPLANAESGTTAWFALKFGPSTFGVFDAFADEAGRQAHLNGQIAAALMANAATLLSSPPNIEKVELLAAKLPA | soluble |
| MHFFDTHTHLNYLQQFTGEPLSQLIDNAKQADVQKILVVAVKEADFKTIQNMTALFPDNLCYGLGLHPLYIQEHAENDLILLEQALKNRDTNCTAVAEIGLERAIPDLLTDELWAKQCHFFESQLYLAKQFNLPVNIHSRKTHDQIFTFLKRIPLSKLGVVHGFSGSYDQAKRFVDLGYKIGVGGTITYERANKTRQAIAKLPLDALVLETDSPDMPVFGFQGQPNRPERIVESFKALCTLRNEPAELIKKLTWENACQIFSLEHHHHHH | not soluble |
| MSDLKNLILNSSILLDTSSTVQNDLNPEQLINVHEDSDGGRDLLTPESFILLMAEILSTNNADTICEYEHQNSADNKVLQNLQFKEVEEDEQIEGLNEQKKSLDNPLWHDVDLPVINEISGNQCEGQFESTLEKNVALTWINSENFQPPIVKPENQTDETYKIWDSEITSIESGKLKLDFPKADYDGNNINPYQKEAINQPGNDSSKNHQLIKGNDSFPILEDIKTNAEPGTKAIKSEVEATKVGTEIPGSSFQMNQKAGSDIQPPVVSNSHIPKNFSIPIHVNHSQWSEQLSEHIVWLGHQDVKSALIKIHPEELGPLEINVKVVKDNASVNISTHSVYVKEIVDQAIPRLREMMAQQGINLSEVHIGTDTSSRQGSQKNHHAEIDLIQSAEDKNKITSLTRHLPKGLVDYFA | not soluble |
| MIGFIGSVFSPWYRWSGRKEPQNHCCLNVATYGPGGRFTMTDRGRAALRQSPDTLTVGPSRMHWTGTQLIVEVNEISSPPLVSPVKGRIVLTPTGITDVEVTLKDDGSHIWRPFAPTARIEVDLTQGHRWHGHGYFDANFGTAALEADFRFWTWGRYPVADGAACFYDATRRDGSRLELGLHVAADGRARLIQPPPEARFARSRWLVERHTPADPGTRPRQVMSMLDAPFYSRAMVETTVFGQKTVGVHEALDLRRFRSPLLMPMLAVRVPRRPGWSF | not soluble |
| MSLNEDWPTIAFLVPMDRNHEYGRNYVSSLRKAAEEHHVNAFVMNSNYDASVQASQMKIAIAKKVDGIVIWPALYGAEQPMLIQAQRAGIPVDISNSQPPEDLDTSLYHAFTGPNDQRIGELQGKELAKLLGSKGTYVYIGGTPGNAAAINRQIGLEREMANHPDVKLLGSQPGNFDKNQAQTAASALISRFGNQIDALVTPDDIIASGAAQALDAAGMAGQVKLLGHNYAPVARSLLENGSMSTTLFQSPCWDSTHALTTMMDVLAGKDVPPVSYMPLPVVTKDNLDEFTPNGCLPEGYSEPATNEGHHHHHH | soluble |

From the DeepSol protein solubility set
